The values that follow come from article PMC11610291.

The target in assay [1] is T1, ACKR4-HA (human) (UniProt Q9NPB9).
T1 sequence: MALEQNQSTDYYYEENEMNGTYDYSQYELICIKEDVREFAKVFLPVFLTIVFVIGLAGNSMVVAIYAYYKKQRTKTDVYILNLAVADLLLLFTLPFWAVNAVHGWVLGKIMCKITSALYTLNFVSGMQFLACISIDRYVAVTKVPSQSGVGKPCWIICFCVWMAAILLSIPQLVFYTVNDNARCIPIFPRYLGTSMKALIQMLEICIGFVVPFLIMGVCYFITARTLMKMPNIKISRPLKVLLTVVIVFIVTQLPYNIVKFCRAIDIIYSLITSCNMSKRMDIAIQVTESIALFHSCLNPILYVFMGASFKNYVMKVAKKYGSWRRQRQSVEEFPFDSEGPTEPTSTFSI

The target in assay [2] is T1, ACKR4-HA (human). This is another data set of the same source.

smBiT-βarrestin1, sequence (P49407 whole entry): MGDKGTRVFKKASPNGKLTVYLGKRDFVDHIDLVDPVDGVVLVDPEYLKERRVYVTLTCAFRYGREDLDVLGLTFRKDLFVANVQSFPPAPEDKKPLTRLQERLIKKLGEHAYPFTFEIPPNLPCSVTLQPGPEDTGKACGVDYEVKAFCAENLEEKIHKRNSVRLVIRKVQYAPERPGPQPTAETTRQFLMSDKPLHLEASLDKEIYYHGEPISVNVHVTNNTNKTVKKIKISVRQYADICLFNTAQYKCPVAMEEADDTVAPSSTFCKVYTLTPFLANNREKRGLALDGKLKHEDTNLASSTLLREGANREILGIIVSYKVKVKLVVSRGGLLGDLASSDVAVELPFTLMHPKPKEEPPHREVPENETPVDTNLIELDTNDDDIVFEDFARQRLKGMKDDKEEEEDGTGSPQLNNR
smBiT-βarrestin2, sequence (P32121 whole entry): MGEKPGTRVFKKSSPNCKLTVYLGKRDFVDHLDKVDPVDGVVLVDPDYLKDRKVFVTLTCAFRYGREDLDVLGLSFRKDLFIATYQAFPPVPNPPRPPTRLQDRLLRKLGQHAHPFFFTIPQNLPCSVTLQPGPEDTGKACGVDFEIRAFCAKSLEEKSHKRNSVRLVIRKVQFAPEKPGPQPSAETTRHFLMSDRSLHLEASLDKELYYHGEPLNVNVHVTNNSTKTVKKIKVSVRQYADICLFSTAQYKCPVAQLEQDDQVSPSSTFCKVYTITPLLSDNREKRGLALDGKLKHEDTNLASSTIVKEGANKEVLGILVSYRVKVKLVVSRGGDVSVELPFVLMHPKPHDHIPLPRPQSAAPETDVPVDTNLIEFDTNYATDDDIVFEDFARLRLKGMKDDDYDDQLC

Consider “smBiT-βarrestin2 (from UniProt P32121 1-409) (natural protein)”, for which, in the assay with ACKR4-HA (human) [1], the bystander NanoBiT (smBiT-βarrestin2 with lgBiT-CAAX) in HEK293: pre-association with the plasma membrane in the absence of CCL19, as compared to cells expressing native ACKR4 (times higher than native ACKR4) came out at 3.3. Moreover, the bystander NanoBiT (smBiT-βarrestin2 with lgBiT-CAAX) in HEK293: CCL19-driven recruitment to the plasma membrane, as compared to native ACKR4 (% of native ACKR4) in the assay with ACKR4-HA (human) [2] was 27.
In the assay with ACKR4-HA (human) [1], “smBiT-βarrestin1 (from UniProt P49407 1-418) (natural protein)” returned a bystander NanoBiT (smBiT-βarrestin1 with lgBiT-CAAX) in HEK293: pre-association with the plasma membrane in the absence of CCL19, as compared to cells expressing native ACKR4 (times higher than native ACKR4) of 2.9. The substance also gave a bystander NanoBiT (smBiT-βarrestin1 with lgBiT-CAAX) in HEK293: CCL19-driven recruitment to the plasma membrane, as compared to native ACKR4 (% of native ACKR4) with ACKR4-HA (human) [2] of 42.
